Legend:
[1] = clinical; conditions: human, in vivo, iv, total radioactivity, SUVmean ± SD Thyroid gland
[2] = tested on: healthy volunteers; set-up: species or system human; conditions: in vivo
Description: (§1) Applications of [^68Ga]Ga-Trivehexin in 3 healthy volunteers were done with written informed consent, and details of the volunteers were shown in Supplementary Table S2 . […] The PET scan was performed at 10 min, 35 min, and 60 min after intravenous injection, without repeated CT scans. Another PET/CT imaging sequence was obtained at 150 min post-injection, as the subject had to leave the scanner for voiding. Based on human PET data, the dosimetry values were calculated using OLINDA V2.2 to calculate organ doses and effective dose (as defined by International Commission on Radiological Protection publication 103) ([14]) using the International Commission on Radiological Protection publication 89 ([15]) adult human male and female models.

[3] = clinical; conditions: human, in vivo, iv, total radioactivity
Description: (§2) The clinical study was approved by Medical Ethics Committee, Zhongnan Hospital of Wuhan University and registered at ClinicalTrials.gov (NCT05835570). PET/CT imaging was performed using a Siemens-Biograph mCT PET/CT scanner (Siemens Healthineers, Erlangen, Germany). No special preparation was needed for [^68Ga]Ga-Trivehexin PET/CT. The injection dose was 87-122 MBq (70.7 MBq/mL, 90.9 MBq/nmol) and was determined on the basis of the patient’s weight (1.85 MBq/kg). PET/CT images were scanned from the top of the head to the upper thigh. PET data were obtained in a three-dimensional mode (matrix 200 × 200) of 6-8 bed positions (3 min/bed). Attenuation correction of PET images was performed using low-dose CT data. Image reconstruction was performed using the TrueX and time-of-flight (ultrahigh-definition PET) algorithms.
as §1

[4] = tested on: healthy volunteers; experiment: clinical; conditions: human, in vivo, iv
Description: as §2, §1

SMILES: CC(C)C[C@@H]1NC(=O)[C@H](CC(=O)O)NC(=O)CNC(=O)[C@H](CCCNC(=N)N)NC(=O)[C@H](Cc2ccc(O)cc2)NC(=O)[C@H](CCCCNC(=O)CCc2cn(CCCNC(=O)CCP(=O)(O)CN3CCN(CP(=O)(O)CCC(=O)NCCCn4cc(CCC(=O)NCCCC[C@H]5C(=O)N[C@@H](Cc6ccc(O)cc6)C(=O)N[C@@H](CCCNC(=N)N)C(=O)NCC(=O)N[C@@H](CC(=O)O)C(=O)N[C@@H](CC(C)C)C(=O)N[C@@H](C)C(=O)N[C@@H](Cc6ccc(O)cc6)C(=O)N6CCC[C@@H]6C(=O)N5C)nn4)CCN(CP(=O)(O)CCC(=O)NCCCn4cc(CCC(=O)NCCCC[C@H]5C(=O)N[C@@H](Cc6ccc(O)cc6)C(=O)N[C@@H](CCCNC(=N)N)C(=O)NCC(=O)N[C@@H](CC(=O)O)C(=O)N[C@@H](CC(C)C)C(=O)N[C@@H](C)C(=O)N[C@@H](Cc6ccc(O)cc6)C(=O)N6CCC[C@@H]6C(=O)N5C)nn4)CC3)nn2)N(C)C(=O)[C@H]2CCCN2C(=O)[C@H](Cc2ccc(O)cc2)NC(=O)[C@H](C)NC1=O [[^68Ga]Ga-Trivehexin, metal not drawn]
- SUV at 0.25 h [1]: 3.41 ± 0.22 SUV
- SUV at 0.5 h [1]: 1.54 ± 0.29 SUV
- SUV at 1 h [1]: 1.37 ± 0.04 SUV
- SUV at 2.5 h [1]: 1.01 ± 0.37 SUV
- Dose Adrenals [2]: 3.22E-02 mGy/MBq
- Dose Brain [2]: 1.40E-03 mGy/MBq
- Dose Esophagus [2]: 1.98E-02 mGy/MBq
- Dose Eyes [2]: 4.25E-03 mGy/MBq
- Dose Gallbladder Wall [2]: 2.09E-02 mGy/MBq
- Dose Heart Wall [2]: 1.73E-02 mGy/MBq
- Dose Kidneys [2]: 2.26E-01 mGy/MBq
- Dose Left colon [2]: 1.88E-02 mGy/MBq
- Dose Liver [2]: 1.58E-02 mGy/MBq
- Dose Lungs [2]: 8.72E-03 mGy/MBq
- Dose Osteogenic Cells [2]: 1.86E-02 mGy/MBq
- Dose Pancreas [2]: 1.96E-02 mGy/MBq
- Dose Prostate [2]: 1.77E-02 mGy/MBq
- Dose Rectum [2]: 1.96E-02 mGy/MBq
- Dose Red Marrow [2]: 1.16E-02 mGy/MBq
- Dose Right colon [2]: 1.86E-02 mGy/MBq
- Dose Salivary Glands [2]: 1.53E-02 mGy/MBq
- Dose Small Intestine [2]: 1.78E-02 mGy/MBq
- Dose Spleen [2]: 1.68E-02 mGy/MBq
- Dose Stomach Wall [2]: 1.77E-02 mGy/MBq
- Dose Testes [2]: 1.41E-02 mGy/MBq
- Dose Thymus [2]: 1.31E-02 mGy/MBq
- Dose Thyroid [2]: 1.96E-02 mGy/MBq
- Dose Total Body [2]: 1.26E-02 mGy/MBq
- Dose Urinary Bladder Wall [2]: 8.24E-02 mGy/MBq
- Effective Dose [2]: 1.67E-02 mGy/MBq
- effective dose in adrenals [2]: 3.22E-02 mSv/MBq
- effective dose in kidneys [2]: 2.26E-01 mSv/MBq
- effective dose in urinary bladder wall [2]: 8.24E-02 mSv/MBq
- total body effective dose [2]: 1.67E-02 mSv/MBq
- SUV at 1 h ([3]; SUVmean ± SD Colon): 1.07 ± 0.21 SUV
- SUV at 2.5 h ([3]; SUVmean ± SD Fat tissue): 0.22 ± 0.1 SUV
- SUV at 2.5 h ([3]; SUVmean ± SD Kidney): 21.3 ± 2 SUV
- SUV at 1 h ([3]; SUVmean ± SD Liver): 0.82 ± 0.07 SUV
- SUV at 2.5 h ([3]; SUVmean ± SD Lung): 0.45 ± 0.13 SUV
- SUV at 1 h ([3]; SUVmean ± SD Muscle): 0.97 ± 0.1 SUV
- SUV at 2.5 h ([3]; SUVmean ± SD Myocardium): 0.5 ± 0.09 SUV
- SUV at 2.5 h ([3]; SUVmean ± SD Parotid gland): 0.97 ± 0.07 SUV
- SUV at 1 h ([3]; SUVmean ± SD Spinal Canal(C5)): 0.85 ± 0.13 SUV
- SUV at 2.5 h ([3]; SUVmean ± SD Spleen): 0.55 ± 0.07 SUV
- SUVmean ± SD Brain [4]: 0.01 ± 0.00

From paper PMC11327152, “Fully-automated production of [^68Ga]Ga-Trivehexin for clinical application and its biodistribution in healthy volunteers” (Frontiers in Oncology, 2024)
